{
  "source": "patent US9850300B2",
  "about": "“Compositions and methods relating to inhibiting cancer cell growth and/or proliferation” (The Regents of the University of Michigan, priority 2013, dated 2017)",
  "format_in_all_cases": "cell-based",
  "key": {"[1]": {"tested_on": "ALDH+ and ALDH(−) SKOV3 cells", "assay": "Single cell microfluidic culture, cell division type", "protocol": "To determine if EGFL6 is promoting asymmetric division, a novel microfluidic culture device was used which allows the isolation, confirmation, and culture of individual cells. ALDH^+ and ALDH^(−) SKOV3 cells were FACS-sorted into separate microfluidic devices (see, e.g., Chung, J., Kim, Y. J. & Yoon, E. Appl Phys Lett 98, 123701 (2011)), and confirmed ALDH expression with fluorescent microscopy (FIG. 3Di). Cells were then mock-treated or treated with EGFL6. After 48 hours, live cells were stained using ALDEFLUOR and re-imaged using fluorescent microscopy (FIG. 3Dii, right panels). Cell divisions, type of daughter cell (ALDH^(−) or ALDH^+), and total cell number were assessed. […] Production of ALDH^+ daughter cells from ALDH^(−) cells was not observed. […] This was associated with a statistically significant increase in total cell numbers; 6.5 versus 3.7 average cells/well and total 325 vs. 185 total cells/50 captured cells in EGFL6 treated and control ALDH^(+) cells respectively."}, "cellular migration": {"tested_on": "cellular migration", "assay": "Transwell migration assay with EGFL6 protein as chemoattractant"}, "[2]": {"tested_on": "SKOV3, OVCAR3, OVCAR8, and primary ovarian tumor cells", "assay": "EGFL6 treatment of ovarian cancer cells, total cell number", "excerpt": "EGFL6 was next expressed in HEK293 cells, NIH3T3 cells, and SKOV3 ovarian cancer cells. Western blot analysis confirmed secretion of EGLF6 in both transient and stable transfectants (FIG. 2Ai, 2D) from all three cell lines. EGFL6 protein was purified to >95% purity (FIG. 2Aii) and treated ovarian cancer cells with either purified EGFL6, supernatant from EGFL6-expressing HEK293 cells, or supernatant from control transfected HEK293 cells. Purified fusion protein and supernatant from EGFL6 transfected cells had similar effects. EGFL6 treatment of SKOV3, OVCAR3, OVCAR8, and primary ovarian tumor cells was associated with a 30-40% increase in total cell number (FIG. 2B).\nSKOV3, A2008, and A2780 were maintained in RPMI-1640, supplemented with 10% FBS with 1% Penicillin/Streptomycin, and cultured in humidified atmosphere of 5% CO2 at 37° C. For all in vitro cell culture experiments, isolated cells were allow to recover overnight following FACS, prior to treatment. Infantile Hemangioma Stem cells were maintained in EBM-2 medium with growth factor supplement cocktails in culture plates coated with fibronectin. For Echistatin and EGFL6 treatment, cells were pretreated with Echistatin (Sigma, 100 nM) for 24 hours prior to EGFL6 treatment. All transfections were performed using FuGene6 reagent (Promega) per company protocol. […]"}, "[3]": {"conditions": "ALDH+ SKOV3 cells, EGFL6 treated"}},
  "data": [
    {"molecule": "EGFL6: recombinant EGFL6-flag protein from transfected HEK293 cells, used purified or as 72 hr supernatant (protein) NAASARHHGLLASARQPGVCHYGTKLACCYGWRRNSKGVCEATCEPGCKFGECVGPNKCRCFPGYTGKTCSQDVNECGMKPRPCQHRCVNTHGSYKCFCLSGHMLMPDATCVNSRTCAMINCQYSCEDTEEGPQCLCPSSGLRLAPNGRDCLDIDECASGKVICPYNRRCVNTFGSYYCKCHIGFELQYISGRYDCIDINECTMDSHTCSHHANCFNTQGSFKCKCKQGYKGNGLRCSAIPENSVKEVLRAPGTIKDRIKKLLAHKNSMKKKAKIKNVTPEPTRTPTPKVNLQPFNYEEIVSRGGNSHGGKKGNEEKMKEGLEDEKREEKALKNDIEERSLRGDVFFPKVNEAGEFGLILVQRKALTSKLEHKDLNISVDCSFNHGICDWKQDREDDFDWNPADRDNAIGFYMAVPALAGHKKDIGRLKLLLPDLQPQSNFCLLFDYRLAGDKVGKLRVFVKNSNNALAWEKTTSEDEKWKTGKIQLYQGTDATKSIIFEAERGKGKTGEIAVDGVLLVSGLCPDSLLSVDD", "values": [
      {"measurement": "number or type of cell divisions of ALDH(−) cells", "setting": "[1]; ALDH(−) SKOV3 cells, 48 hours", "value": "no significant impact"},
      {"measurement": "increase in the percentage of ALDH+ cells undergoing asymmetric division", "setting": "[1]; ALDH+ SKOV3 cells, 48 hours, vs mock-treated", "value": 2, "unit": "fold"},
      {"measurement": "average cells/well", "setting": "[1]; [3]", "value": 6.5, "unit": "cells/well"},
      {"measurement": "total cells/50 captured cells", "setting": "[1]; [3]", "value": "325 total cells/50 captured cells"},
      {"measurement": "cellular migration in transwell assay", "setting": "cellular migration", "value": "increased cellular migration"},
      {"measurement": "increase in total cell number", "setting": "[2]; EGFL6 treatment vs control supernatant", "value": "30-40%"},
      {"measurement": "total cell numbers", "setting": "[2]; increasing concentrations of EGFL6", "value": "increasing total cell numbers"}
    ]}
  ]
}
